{"source": "patent US20250049935", "key": {"[1]": {"target": "DNase I (UniProt P00639)", "sequence (P00639 23-282)": "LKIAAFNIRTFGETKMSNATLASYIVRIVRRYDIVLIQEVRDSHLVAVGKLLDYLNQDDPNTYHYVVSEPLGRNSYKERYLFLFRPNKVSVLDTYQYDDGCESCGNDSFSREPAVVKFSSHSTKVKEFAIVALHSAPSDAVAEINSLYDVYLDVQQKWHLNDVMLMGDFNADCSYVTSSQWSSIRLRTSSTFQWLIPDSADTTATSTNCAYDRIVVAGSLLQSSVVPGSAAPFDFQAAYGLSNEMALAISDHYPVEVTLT", "assay": "cleavage_in_vitro", "details": "10 mM Tris-HCl pH 7.5, 2.5 mM MgCl2, 0.5 mM CaCl2, 100 nM DNA, 0.6 unit/mL"}, "[2]": {"target": "thrombin (in pooled normal plasma) (Homo sapiens) (UniProt P00734+P00734)", "assay": "inhibition", "details": "two HD1 aptamers flanking a poly(serinol phosphodiester) backbone of 30 amine-serinol units (X), grafted with 10 kDa PEG side chains; 5 uM in human plasma; almost three-fold longer clotting; reversed by LNA antidote"}, "[3]": {"target": "thrombin (in C57BL/6 mouse plasma) (Mus musculus) (UniProt P19221+P19221)", "assay": "inhibition", "details": "two HD1 aptamers flanking a poly(serinol phosphodiester) backbone of 30 amine-serinol units (X), grafted with 10 kDa PEG side chains; in vivo i.v. 15 nmol in C57BL/6 mice; also 3-fold PT; neutralized by LNA antidote"}, "[4]": {"target": "alpha thrombin (Homo sapiens) (UniProt P00734+P00734)", "assay": "MST", "details": "two HD1 aptamers flanking a poly(serinol phosphodiester) backbone of 30 amine-serinol units (X), grafted with 10 kDa PEG side chains; 20 mM HEPES pH 7.4, 150 mM NaCl, 2 mM CaCl2, 0.05% Tween; 10 nM thrombin"}}}
{"sequence": "NNNNNNNNNNNNNNNTTTTTTTTTTTTTTT / AAAAAAAAAAAAAAA [Doubler PSP pacDNA:dA15 duplex]", "values": [{"measurement": "activity", "setting": "[1]; symmetric doubler with two 15-unit poly(serinol phosphodiester) arms grafted with 10 kDa PEG", "value": 38.1, "unit": "min"}]}
{"sequence": "TTTTTTTTTTTTTTT (double strand) [dT15:dA15 duplex]", "values": [{"measurement": "activity", "setting": "[1]", "value": 13.9, "unit": "min"}]}
{"sequence": "TTTTTTTTTTTTTTTNNNNNNNNNNNNNNNNNNNNNNNNNNNNNNTTTTTTTTTTTTTTT / AAAAAAAAAAAAAAA [PSP pacDNA:dA15 duplex]", "values": [{"measurement": "activity", "setting": "[1]; poly(serinol phosphodiester) backbone of 30 units grafted with 10 kDa PEG", "value": 32.2, "unit": "min"}]}
{"sequence": "GGTTGGTGTGGTTGGTTTTTNNNNNNNNNNNNNNNNNNNNNNNNNNNNNNTTTTTGGTTGGTGTGGTTGG [PSP pacHD1]", "values": [{"measurement": "activity (fold aPTT vs vehicle)", "setting": "[2]", "value": 3}, {"measurement": "activity (fold aPTT vs blank)", "setting": "[3]", "value": 5}, {"measurement": "Kd", "setting": "[4]", "value": 6.9, "unit": "nM"}]}
